Data reported in article PMC6135645.

Biological target: Light-Harvesting Complex II (LHCII), trimeric (spinach (endogenous in spinach leaves))
Experiment: native gel or EMSA; non-denaturing Clear Native PAGE (NativePAGE Novex 4-16% Bis-Tris), Coomassie staining; LHCII in α-DDM after sucrose gradient and size-exclusion chromatography

stoichiometry N: 3
Substance: Light-Harvesting Complex II (LHCII), trimeric
